Measured values: publication PMC9482650, “Quantitative fragmentomics allow affinity mapping of interactomes” (Nature Communications, 2022)
Each block holds one binder with its values, some of them ahead of it.

What was measured:
Experiment in all cases: holdup assay
Set-up in all cases: key: below the threshold = too weak to quantify, mostly under pKd 3.1 to 4
SYNJ2BP, P57105 = target: T1, SYNJ2BP, P57105
T1 sequence (P57105 8-110, limits assumed, looked up): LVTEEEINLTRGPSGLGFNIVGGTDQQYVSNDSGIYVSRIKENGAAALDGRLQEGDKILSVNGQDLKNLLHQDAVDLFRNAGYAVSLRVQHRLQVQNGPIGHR

GOPC, Q9HD26 = target: GOPC, Q9HD26
GRID2IP_1, A4D2P6 = target: GRID2IP_1, A4D2P6
Chain of GRID2IP_1, A4D2P6 (A4D2P6 1-87): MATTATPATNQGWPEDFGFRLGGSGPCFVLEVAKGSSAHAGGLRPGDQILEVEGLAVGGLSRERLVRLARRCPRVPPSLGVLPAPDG

MAGI3_2, Q5TCQ9 = target: MAGI3_2, Q5TCQ9
Chain of MAGI3_2, Q5TCQ9 (Q5TCQ9 398-503): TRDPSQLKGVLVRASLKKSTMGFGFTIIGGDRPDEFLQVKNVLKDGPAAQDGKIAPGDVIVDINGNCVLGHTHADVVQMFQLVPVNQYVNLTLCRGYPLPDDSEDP

GRIP2_6, Q9C0E4 = target: GRIP2_6, Q9C0E4
Chain of GRIP2_6, Q9C0E4 (Q9C0E4 648-740): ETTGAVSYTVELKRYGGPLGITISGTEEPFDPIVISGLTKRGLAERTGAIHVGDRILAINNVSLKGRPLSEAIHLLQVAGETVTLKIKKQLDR

GRIP2_4, Q9C0E4 = target: GRIP2_4, Q9C0E4
Chain of GRIP2_4, Q9C0E4 (Q9C0E4 446-548): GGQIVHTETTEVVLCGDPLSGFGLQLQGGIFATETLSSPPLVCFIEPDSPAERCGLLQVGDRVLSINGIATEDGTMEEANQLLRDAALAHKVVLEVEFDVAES

SIPA1L2, Q9P2F8 = target: T2, SIPA1L2, Q9P2F8
T2 sequence (Q9P2F8 945-1036, limits assumed, looked up): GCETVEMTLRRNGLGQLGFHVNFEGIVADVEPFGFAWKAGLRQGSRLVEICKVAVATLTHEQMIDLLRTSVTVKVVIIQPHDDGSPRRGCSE

APBA2_2, Q99767 = target: T3, APBA2_2, Q99767
T3 sequence (Q99767 654-744, limits assumed, looked up): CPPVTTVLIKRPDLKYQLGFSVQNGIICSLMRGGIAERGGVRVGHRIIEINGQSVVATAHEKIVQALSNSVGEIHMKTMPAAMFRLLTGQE

DLG1_2, Q12959 = target: DLG1_2, Q12959
Chain of DLG1_2, Q12959 (Q12959 314-412): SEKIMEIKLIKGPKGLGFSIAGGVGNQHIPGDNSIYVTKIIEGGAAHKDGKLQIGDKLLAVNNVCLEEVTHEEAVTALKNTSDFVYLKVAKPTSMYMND

GRIP1_5, Q9Y3R0 = target: T4, GRIP1_5, Q9Y3R0
T4 sequence (Q9Y3R0 568-668, limits assumed, looked up): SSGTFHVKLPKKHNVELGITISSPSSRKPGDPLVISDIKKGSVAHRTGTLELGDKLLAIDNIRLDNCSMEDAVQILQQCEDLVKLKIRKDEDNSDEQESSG

MPP7, Q5T2T1 = target: T5, MPP7, Q5T2T1
T5 sequence (Q5T2T1 134-230, limits assumed, looked up): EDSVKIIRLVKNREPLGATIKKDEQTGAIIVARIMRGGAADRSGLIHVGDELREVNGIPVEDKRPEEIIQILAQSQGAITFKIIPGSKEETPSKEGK

SNX27, Q96L92 = target: SNX27, Q96L92
FRMPD2_1, Q68DX3 = target: FRMPD2_1, Q68DX3
Chain of FRMPD2_1, Q68DX3 (Q68DX3 770-861): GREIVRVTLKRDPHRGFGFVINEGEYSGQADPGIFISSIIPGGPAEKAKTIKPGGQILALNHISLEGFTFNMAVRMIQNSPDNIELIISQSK

SNTG1, Q9NSN8 = target: T6, SNTG1, Q9NSN8
T6 sequence (Q9NSN8 52-150, limits assumed, looked up): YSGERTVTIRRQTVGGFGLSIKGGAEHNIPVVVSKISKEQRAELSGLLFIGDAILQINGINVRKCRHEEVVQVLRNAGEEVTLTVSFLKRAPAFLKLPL

PDLIM1, O00151 = target: PDLIM1, O00151
Chain of PDLIM1, O00151 (O00151 1-87): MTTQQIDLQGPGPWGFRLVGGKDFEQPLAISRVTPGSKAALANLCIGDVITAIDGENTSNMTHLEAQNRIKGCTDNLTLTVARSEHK

RHPN1, Q8TCX5 = target: T7, RHPN1, Q8TCX5
T7 sequence (Q8TCX5 508-602, limits assumed, looked up): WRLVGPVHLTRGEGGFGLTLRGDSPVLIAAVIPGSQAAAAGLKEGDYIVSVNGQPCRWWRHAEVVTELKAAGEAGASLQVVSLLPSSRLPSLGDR

GRASP, Q7Z6J2 = target: GRASP, Q7Z6J2
Chain of GRASP, Q7Z6J2 (Q7Z6J2 96-193): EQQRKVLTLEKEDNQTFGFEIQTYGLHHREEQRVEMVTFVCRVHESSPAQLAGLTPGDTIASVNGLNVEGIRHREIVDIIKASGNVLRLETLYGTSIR

HTRA1, Q92743 = target: HTRA1, Q92743
Chain of HTRA1, Q92743 (Q92743 360-477): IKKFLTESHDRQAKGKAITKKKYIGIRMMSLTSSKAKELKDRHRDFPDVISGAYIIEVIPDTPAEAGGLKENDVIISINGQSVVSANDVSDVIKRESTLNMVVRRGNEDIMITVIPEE

HTRA2, O43464 = target: HTRA2, O43464
Chain of HTRA2, O43464 (O43464 355-458): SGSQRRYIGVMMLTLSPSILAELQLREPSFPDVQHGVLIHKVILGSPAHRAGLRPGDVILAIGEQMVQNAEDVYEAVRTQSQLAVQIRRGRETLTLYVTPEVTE

DLG4_2, P78352 = target: DLG4_2, P78352
Chain of DLG4_2, P78352 (P78352 155-259): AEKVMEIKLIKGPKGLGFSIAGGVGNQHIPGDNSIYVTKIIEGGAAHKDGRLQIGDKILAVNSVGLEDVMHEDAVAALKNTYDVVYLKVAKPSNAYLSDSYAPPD

DLG1_3, Q12959 = target: DLG1_3, Q12959
Chain of DLG1_3, Q12959 (Q12959 457-571): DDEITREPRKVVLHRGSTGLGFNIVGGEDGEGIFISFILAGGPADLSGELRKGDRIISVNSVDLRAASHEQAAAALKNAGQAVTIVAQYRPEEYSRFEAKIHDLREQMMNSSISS

MAGI1_2, Q96QZ7 = target: MAGI1_2, Q96QZ7
Chain of MAGI1_2, Q96QZ7 (Q96QZ7 456-580): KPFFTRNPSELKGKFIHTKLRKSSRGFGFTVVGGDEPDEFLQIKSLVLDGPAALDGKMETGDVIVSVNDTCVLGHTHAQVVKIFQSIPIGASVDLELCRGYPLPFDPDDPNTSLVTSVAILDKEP

DLG4_1, P78352 = target: DLG4_1, P78352
Chain of DLG4_1, P78352 (P78352 62-152): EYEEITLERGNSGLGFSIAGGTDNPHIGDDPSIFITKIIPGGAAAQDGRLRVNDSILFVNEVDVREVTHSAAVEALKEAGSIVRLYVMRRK

ARHGEF12, Q9NZN5-2 = target: ARHGEF12, Q9NZN5-2
Chain of ARHGEF12, Q9NZN5-2 (Q9NZN5 other isoform, or with tags, fused parts or gaps): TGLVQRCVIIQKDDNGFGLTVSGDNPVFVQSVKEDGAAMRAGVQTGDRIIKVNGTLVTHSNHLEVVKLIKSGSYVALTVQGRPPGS

LIN7B, Q9HAP6 = target: T8, LIN7B, Q9HAP6
T8 sequence (Q9HAP6 88-185, limits assumed, looked up): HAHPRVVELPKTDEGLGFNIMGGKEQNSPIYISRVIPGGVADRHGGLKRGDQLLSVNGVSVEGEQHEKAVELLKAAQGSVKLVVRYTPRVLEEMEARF

LAP2, Q96RT1 = target: LAP2, Q96RT1
Chain of LAP2, Q96RT1 (Q96RT1 other isoform, or with tags, fused parts or gaps): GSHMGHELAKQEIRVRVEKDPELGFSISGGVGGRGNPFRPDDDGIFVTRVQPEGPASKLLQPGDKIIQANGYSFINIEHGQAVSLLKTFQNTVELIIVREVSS

MAGI2_4, Q86UL8 = target: MAGI2_4, Q86UL8
Chain of MAGI2_4, Q86UL8 (Q86UL8 772-865): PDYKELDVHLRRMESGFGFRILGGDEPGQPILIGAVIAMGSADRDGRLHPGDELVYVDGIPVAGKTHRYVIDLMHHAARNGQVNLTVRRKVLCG

GORASP1, Q9BQQ3 = target: GORASP1, Q9BQQ3
Chain of GORASP1, Q9BQQ3 (Q9BQQ3 1-208): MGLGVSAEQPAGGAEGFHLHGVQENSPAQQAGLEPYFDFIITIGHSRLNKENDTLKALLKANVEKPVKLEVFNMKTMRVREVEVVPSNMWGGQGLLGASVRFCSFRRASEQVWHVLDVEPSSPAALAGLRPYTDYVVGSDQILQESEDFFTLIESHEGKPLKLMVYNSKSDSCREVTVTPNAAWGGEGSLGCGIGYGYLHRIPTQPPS

MPDZ_10, O75970 = target: T9, MPDZ_10, O75970
T9 sequence (O75970 1624-1722, limits assumed, looked up): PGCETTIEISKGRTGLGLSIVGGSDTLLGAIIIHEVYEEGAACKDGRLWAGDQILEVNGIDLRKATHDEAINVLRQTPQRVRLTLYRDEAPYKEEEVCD

[1] = plain residues with an end cap or a label only (N-terminal biotin on a linker: ahx)
[2] = plain residues with an end cap or a label only (N-terminal biotin on a linker: ttds)

pKd (SYNJ2BP, P57105; [1]): below the threshold
pKd (GOPC, Q9HD26; [1]): below the threshold
pKd (GRID2IP_1, A4D2P6; [1]): below the threshold
pKd (MAGI3_2, Q5TCQ9; [1]): below the threshold
pKd (GRIP2_6, Q9C0E4; [1]): below the threshold
pKd (GRIP2_4, Q9C0E4; [1]): below the threshold
pKd (SIPA1L2, Q9P2F8; [1]): below the threshold
pKd (APBA2_2, Q99767; [1]): below the threshold
pKd (DLG1_2, Q12959; [1]): below the threshold
pKd (GRIP1_5, Q9Y3R0; [1]): below the threshold
pKd (MPP7, Q5T2T1; [1]): below the threshold
pKd (SNX27, Q96L92; [1]): below the threshold
pKd (FRMPD2_1, Q68DX3; [1]): below the threshold
pKd (SNTG1, Q9NSN8; [1]): below the threshold
pKd (PDLIM1, O00151; [1]): below the threshold
pKd (RHPN1, Q8TCX5; [1]): below the threshold
pKd (GRASP, Q7Z6J2; [1]): below the threshold
pKd (HTRA1, Q92743; [1]): below the threshold
pKd (HTRA2, O43464; [1]): below the threshold
pKd (DLG4_2, P78352; [1]): below the threshold
pKd (DLG1_3, Q12959; [1]): below the threshold
pKd (MAGI1_2, Q96QZ7; [1]): below the threshold
pKd (DLG4_1, P78352; [1]): below the threshold
pKd (ARHGEF12, Q9NZN5-2; [1]): below the threshold
pKd (LIN7B, Q9HAP6; [1]): below the threshold
pKd (LAP2, Q96RT1; [1]): below the threshold
pKd (MAGI2_4, Q86UL8; [1]): below the threshold
pKd (GORASP1, Q9BQQ3; [1]): below the threshold
pKd (MPDZ_10, O75970; [1]): below the threshold
B1: MYO18A, Q92614 (peptide)
chain: TEAKLTETNA

pKd (SYNJ2BP, P57105; [2]): 4.01
pKd (GOPC, Q9HD26; [2]): 3.86
pKd (GRID2IP_1, A4D2P6; [2]): below the threshold
pKd (MAGI3_2, Q5TCQ9; [2]): below the threshold
pKd (GRIP2_6, Q9C0E4; [2]): below the threshold
pKd (GRIP2_4, Q9C0E4; [2]): below the threshold
pKd (SIPA1L2, Q9P2F8; [2]): below the threshold
pKd (APBA2_2, Q99767; [2]): below the threshold
pKd (DLG1_2, Q12959; [2]): below the threshold
pKd (GRIP1_5, Q9Y3R0; [2]): below the threshold
pKd (MPP7, Q5T2T1; [2]): below the threshold
pKd (SNX27, Q96L92; [2]): 4.97
pKd (FRMPD2_1, Q68DX3; [2]): below the threshold
pKd (SNTG1, Q9NSN8; [2]): below the threshold
pKd (PDLIM1, O00151; [2]): below the threshold
pKd (RHPN1, Q8TCX5; [2]): 4.47
pKd (GRASP, Q7Z6J2; [2]): 4.77
pKd (HTRA1, Q92743; [2]): 3.65
pKd (HTRA2, O43464; [2]): below the threshold
pKd (DLG4_2, P78352; [2]): below the threshold
pKd (DLG1_3, Q12959; [2]): below the threshold
pKd (MAGI1_2, Q96QZ7; [2]): below the threshold
pKd (DLG4_1, P78352; [2]): below the threshold
pKd (ARHGEF12, Q9NZN5-2; [2]): 4.77
pKd (LIN7B, Q9HAP6; [2]): below the threshold
pKd (LAP2, Q96RT1; [2]): below the threshold
pKd (MAGI2_4, Q86UL8; [2]): below the threshold
pKd (GORASP1, Q9BQQ3; [2]): below the threshold
pKd (MPDZ_10, O75970; [2]): below the threshold
B2: ARHGAP17, Q68EM7 (peptide)
chain: IDNDTESTAL

pKd (SYNJ2BP, P57105; [2]): 5.41
pKd (GOPC, Q9HD26; [2]): below the threshold
pKd (GRID2IP_1, A4D2P6; [2]): below the threshold
pKd (MAGI3_2, Q5TCQ9; [2]): 5.14
pKd (GRIP2_6, Q9C0E4; [2]): below the threshold
pKd (GRIP2_4, Q9C0E4; [2]): below the threshold
pKd (SIPA1L2, Q9P2F8; [2]): below the threshold
pKd (APBA2_2, Q99767; [2]): below the threshold
pKd (DLG1_2, Q12959; [2]): 4.86
pKd (GRIP1_5, Q9Y3R0; [2]): below the threshold
pKd (MPP7, Q5T2T1; [2]): below the threshold
pKd (SNX27, Q96L92; [2]): 5.7
pKd (FRMPD2_1, Q68DX3; [2]): below the threshold
pKd (SNTG1, Q9NSN8; [2]): 4.67
pKd (PDLIM1, O00151; [2]): below the threshold
pKd (RHPN1, Q8TCX5; [2]): 4.37
pKd (GRASP, Q7Z6J2; [2]): below the threshold
pKd (HTRA1, Q92743; [2]): below the threshold
pKd (HTRA2, O43464; [2]): below the threshold
pKd (DLG4_2, P78352; [2]): 4.71
pKd (DLG1_3, Q12959; [2]): 4.63
pKd (MAGI1_2, Q96QZ7; [2]): 4.37
pKd (DLG4_1, P78352; [2]): 4.4
pKd (ARHGEF12, Q9NZN5-2; [2]): 3.7
pKd (LIN7B, Q9HAP6; [2]): 3.67
pKd (LAP2, Q96RT1; [2]): 4.07
pKd (MAGI2_4, Q86UL8; [2]): 4.42
pKd (GORASP1, Q9BQQ3; [2]): below the threshold
pKd (MPDZ_10, O75970; [2]): below the threshold
B3: VANGL1, Q8TAA9 (peptide)
chain: VLRLQSETSV
